We go through 3 proteins from publication PMC12063518, “IAT4, a New Indolamine N‐Acetyltransferase in Saccharomyces cerevisiae Involved in Melatonin Biosynthesis” (Journal of Pineal Research, 2025).

Common to all, as to experiment: purified protein
Substrate in data set [1]: NCCc1c[nH]c2ccc(O)cc12
The format is biochemical, Saccharomyces cerevisiae. As to conditions: 0.2 mM acetyl-CoA, pH 8.8, 37 °C.

Substrate in data set [2]: NCCc1c[nH]c2ccc(O)cc12
Particulars: 0.2 mM acetyl-CoA, pH 8.8, 37 °C, 15 min enzymatic assay as Iat4, fit R2 = 0.825.

Substrate in data set [3]: COc1ccc2[nH]cc(CCN)c2c1
The data set is classed as biochemical, Saccharomyces cerevisiae. Particulars: 0.2 mM acetyl-CoA, pH 8.8, 37 °C, 15 min.

Substrate in data set [4]: NCCc1c[nH]c2ccccc12
The data set is classed as biochemical, Saccharomyces cerevisiae. As to conditions: 0.2 mM acetyl-CoA, pH 8.8, 37 °C, 15 min.

B1: Hpa2 (Saccharomyces cerevisiae S288C) (protein)
chain: MSNTSEDNITVRFVTENDKEGWQRLWKSYQDFYEVSFPDDLDDFNFGRFLDPNIKMWAAVAVESSSEKIIGMINFFNHMTTWDFKDKIYINDLYVDENSRVKGAGGKLIQFVYDEADKLGTPSVYWCTDESNHRAQLLYVKVGYKAPKILYKRKGY
notes: same enzymatic assay as Iat4
Usually Km stands for the concentration of substrate that gives half-maximal velocity. Regarding B1, in “purified protein [1]” (15 min enzymatic assay as Iat4, unit not given, mM from the preceding sentence), the Km is 6.82 ± 1.62 mM.

B2: Paa1 (Saccharomyces cerevisiae S288C) (protein)
chain: MASSSSTLPLHMYIRPLIIEDLKQILNLESQGFPPNERASEEIISFRLINCPELCSGLFIREIEGKEVKKETLIGHIMGTKIPHEYITIESMGKLQVESSNHIGIHSVVIKPEYQKKNLATLLLTDYIQKLSNQEIGNKIVLIAHEPLIPFYERVGFKIIAENTNVAKDKNFAEQKWIDMERELIKEEYDN
B2: the Km in “purified protein [2]” was found to be 4250 ± 1460 µM.

B3: Iat4 (Saccharomyces cerevisiae S288C) (protein)
chain: MSFENKLPTPLENNDAKGHMVCTLNKTTDARRAAETLSIAFSNSPAFHFICKKILNIPLAEKVPTRTITTDIISPFLDSPYGEISEVNTFDAVAVWSLPPHVPKARSNDAKFNKDFIDDLNARVKQVIPNGINYYYLFCIGKNLNEKGIRGSVRTIFEEYKRRADEENCAIVLEAIAEHAKSVYEYFGFRNYMTFKYGECEVDSNGNCDPNGEGFTAYLMIYHKDGNKVLKE
notes: GST fusion from pGEX-5X-1, E. coli Rosetta (DE3), glutathione Sepharose; native protein 232 aa
On to B3, for which the Km was determined as 353 µM in the data set “purified protein [3]”, 0.93 mM in “purified protein [1]” (15 min) and 356 µM in “purified protein [4]”.
